Positions count from the first letter of the chain named.
Key:
[1] = biological target: T1, human IL-3Rα E51Q/S59A double mutant, full length (human, UniProt P26951 19-378); assay: flow cytometry on transfected cells (FIG. 5)
T1 chain: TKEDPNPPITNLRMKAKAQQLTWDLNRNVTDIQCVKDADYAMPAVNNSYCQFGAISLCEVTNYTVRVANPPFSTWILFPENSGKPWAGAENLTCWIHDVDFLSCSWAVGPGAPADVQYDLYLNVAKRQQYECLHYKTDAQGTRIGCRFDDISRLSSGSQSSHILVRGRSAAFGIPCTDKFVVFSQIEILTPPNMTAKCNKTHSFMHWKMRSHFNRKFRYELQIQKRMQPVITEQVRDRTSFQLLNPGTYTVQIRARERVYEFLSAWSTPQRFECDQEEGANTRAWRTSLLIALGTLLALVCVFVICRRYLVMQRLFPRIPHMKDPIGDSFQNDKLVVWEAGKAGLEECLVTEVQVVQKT

[2] = biological target: T2, human IL-3Rα E51Q/P88T double mutant, full length (human, UniProt P26951 19-378); assay: flow cytometry on transfected cells (FIG. 5)
T2 chain: T1 chain with A41S, P70T

[3] = biological target: T3, human IL-3Rα S59A/P88T double mutant, full length (human, UniProt P26951 19-378); assay: flow cytometry on transfected cells (FIG. 5)
T3 chain: T1 chain with Q33E, P70T

[4] = biological target: T4, human IL-3Rα E51Q/S59A/P88T triple mutant, full length (human, UniProt P26951 19-378); assay: flow cytometry on transfected cells (FIG. 5)
T4 chain: T1 chain with P70T

[5] = biological target: T5, soluble human IL-3Rα 1-306-His E51A (human, UniProt P26951 19-307); assay: Western blot, supernatants of 293FS cells
T5 construct: supernatant of 293FS cells; also called E51, soluble alanine
T5 sequence: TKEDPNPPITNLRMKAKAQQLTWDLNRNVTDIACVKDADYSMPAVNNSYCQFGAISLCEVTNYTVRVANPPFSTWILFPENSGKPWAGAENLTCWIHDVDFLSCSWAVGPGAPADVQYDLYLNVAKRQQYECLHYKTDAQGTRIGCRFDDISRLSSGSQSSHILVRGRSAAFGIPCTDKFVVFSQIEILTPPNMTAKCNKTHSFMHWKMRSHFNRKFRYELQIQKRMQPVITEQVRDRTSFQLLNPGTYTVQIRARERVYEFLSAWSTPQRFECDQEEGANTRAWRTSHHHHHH

[6] = biological target: T6, soluble human IL-3Rα 1-306-His Y67A (human, UniProt P26951 19-307); assay: Western blot, supernatants of 293FS cells
T6 construct: supernatant of 293FS cells; also called Y67, soluble alanine
T6 sequence: T5 sequence with A33E, Y49A

[7] = biological target: T7, soluble human IL-3Rα 1-306-His P97A (human, UniProt P26951 19-307); assay: Western blot, supernatants of 293FS cells
T7 construct: supernatant of 293FS cells; also called P97, soluble alanine
T7 sequence: T5 sequence with A33E, P79A

Measured: binding result

B1: antibody CSL362 (antibody, V domains shown)
VH: EVQLVQSGAEVKKPGESLKISCKGSGYSFTDYYMKWARQMPGKGLEWMGDIIPSNGATFYNQKFKGQVTISADKSISTTYLQWSSLKASDTAMYYCARSHLLRASWFAYWGQGTMVTVSS
VL: DIVMTQSPDSLAVSLGERATINCESSQSLLNSGNQKNYLTWYQQKPGQPPKPLIYWASTRESGVPDRFSGSGSGTDFTLTISSLQAEDVAVYYCQNDYSYPYTFGQGTKLEIKR
no binding: all assays above

Reference: patent publication US20160031996A1 (CSL, published 2016)
